*1 amine or outer side, *2 acyl side, *3 side chain or, on linkers, in order; H or OH if unused. Primed or numbered codes have the meaning given here. Where no end group is shown, it is not given here. [ ]: non-standard residue; d: D form. The star is where a group is joined. Pro(trans-4-NH2) = O=C([C@@H]1C[C@@H](N[*:3])CN1[*:1])[*:2]; Pro(4-methylene) = C=C1CN[C@H](C(=O)O)C1; Asu′ = aspartimide (aminosuccinimide); Hyp = O=C(O)[C@@H]1C[C@@H](O)CN1; dHyp = O=C(O)[C@H]1C[C@H](O)CN1; Tle = CC(C)(C)[C@H](N)C(=O)O; Aib = CC(C)(N)C(=O)O; OiPr = CC(C)O*
Assay: Evaluation of dissolution stability (content change on storage in dissolved state)
Assay type: physicochemical
Details: 1 mg/1 ml dissolved state, 40° C. and RH 75%

Substance: Hyp-Gly-Gln-Asp-Gly-Leu-Ala-Gly ([Hyp]GQDGLAG) [Example 15]
- Day 1 content (%): 91.06%
- Day 3 content (%): 81.63%
- Day 7 content (%): 70.56%
- Initial content (%): 91.84%

Substance: Hyp-Gly-Gln-Ala-Leu ([Hyp]GQAL) [Example 120]
- Day 1 content (%): 98.87%
- Day 3 content (%): 98.73%
- Day 7 content (%): 98.44%
- Initial content (%): 99.07%

Substance: Hyp-Gly-Gln-Asp-Gly-D Leu-Ala ([Hyp]GQDG[dL]A) [Example 65]
- Day 1 content (%): 92.97%
- Day 3 content (%): 86.96%
- Day 7 content (%): 75.40%
- Initial content (%): 95.64%

Substance: Leu-Ala-Gly-Pro-Lys (LAGPK) [Example 25]
- Day 1 content (%): 85.76%
- Day 3 content (%): 81.09%
- Day 7 content (%): 77.40%
- Initial content (%): 89.14%

Substance: Hyp-Gly-Gln-Leu-Val ([Hyp]GQLV) [Example 95]
- Day 1 content (%): 98.62%
- Day 3 content (%): 98.10%
- Day 7 content (%): 97.78%
- Initial content (%): 98.64%

Substance: Hyp-Gly-Gln-Glu-Val-Leu ([Hyp]GQEVL) [Example 89]
- Day 1 content (%): 99.07%
- Day 3 content (%): 98.81%
- Day 7 content (%): 98.43%
- Initial content (%): 99.57%

Substance: Hyp-Gly-Gln-Ala-Val ([Hyp]GQAV) [Example 119]
- Day 1 content (%): 96.33%
- Day 3 content (%): 96.18%
- Day 7 content (%): 95.89%
- Initial content (%): 96.39%

Substance: 4-methylene-Pro-Gly-Gln-Asp-Gly-Leu ([Pro(4-methylene)]GQDGL) [Example 49]
- Day 1 content (%): 86.53%
- Day 3 content (%): 79.49%
- Day 7 content (%): 60.01%
- Initial content (%): 94.35%

Substance: Hyp-Gly-Gln-Asp (isopropyl ester)-Gly-Leu ([Hyp]GQD(OiPr)GL) [Example 116]
- Day 1 content (%): 85.82%
- Day 3 content (%): 84.31%
- Day 7 content (%): 83.50%
- Initial content (%): 88.64%

Substance: Hyp-Gly-Gln-Asu-Gly ([Hyp]GQ[Asu′]G) [Example 100]
- Day 1 content (%): 93.43%
- Day 3 content (%): 85.30%
- Day 7 content (%): 74.12%
- Initial content (%): 97.58%

Substance: GQDGLA [Example 29]
- Day 1 content (%): 93.74%
- Day 3 content (%): 92.16%
- Day 7 content (%): 90.82%
- Initial content (%): 95.19%

Substance: Hyp-Gly-Gln-Asu-Gly-Leu (isopropyl ester) [Example 111]
- Day 1 content (%): 90.71%
- Day 3 content (%): 82.07%
- Day 7 content (%): 69.37%
- Initial content (%): 97.48%

Substance: Hyp-Gly-Gln-Glu-Val-Leu-Ala ([Hyp]GQEVLA) [Example 87]
- Day 1 content (%): 98.07%
- Day 3 content (%): 96.57%
- Day 7 content (%): 94.38%
- Initial content (%): 99.14%

Substance: Hyp-Gly-Gln-Leu-Val-Leu ([Hyp]GQLVL) [Example 99]
- Day 1 content (%): 99.44%
- Day 3 content (%): 99.28%
- Day 7 content (%): 99.15%
- Initial content (%): 99.45%

Substance: trans-4NH2-Pro-Gly-Gln-Asp-Gly-Leu-Ala ([Pro(trans-4-NH2)]GQDGLA) [Example 52]
- Day 1 content (%): 86.35%
- Day 3 content (%): 74.65%
- Day 7 content (%): 54.51%
- Initial content (%): 96.55%

Substance: DGLAGPK [Example 19]
- Day 1 content (%): 89.94%
- Day 3 content (%): 79.26%
- Day 7 content (%): 71.50%
- Initial content (%): 95.90%

Substance: Hyp-Gly-Gln-Asp-Leu-Leu ([Hyp]GQDLL) [Example 35]
- Day 1 content (%): 97.50%
- Day 3 content (%): 95.78%
- Day 7 content (%): 93.68%
- Initial content (%): 98.51%

Substance: Hyp-Gly-Gln-Glu-tert Leu-Leu-Ala ([Hyp]GQE[Tle]LA) [Example 93]
- Day 1 content (%): 98.35%
- Day 3 content (%): 98.05%
- Day 7 content (%): 97.79%
- Initial content (%): 98.39%

Substance: D Hyp-Gly-Gln-Asp-Gly-Leu ([dHyp]GQDGL) [Example 45]
- Day 1 content (%): 86.74%
- Day 3 content (%): 69.07%
- Day 7 content (%): 56.03%
- Initial content (%): 94.45%

Substance: Hyp-Gly-Gln-Glu-Gly-Leu-Ala ([Hyp]GQEGLA) [Example 69]
- Day 1 content (%): 96.94%
- Day 3 content (%): 96.32%
- Day 7 content (%): 95.69%
- Initial content (%): 97.12%

Substance: Hyp-Gly-Gln-Leu-Leu ([Hyp]GQLL) [Example 121]
- Day 1 content (%): 99.29%
- Day 3 content (%): 99.13%
- Day 7 content (%): 99.22%
- Initial content (%): 99.39%

Substance: Hyp-Gly-Gln-Ala-Leu-Leu ([Hyp]GQALL) [Example 123]
- Day 1 content (%): 99.14%
- Day 3 content (%): 98.98%
- Day 7 content (%): 98.86%
- Initial content (%): 99.26%

Substance: Hyp-Gly-Gln-Asp (isopropyl ester)-Gly-Leu-Ala (isopropyl ester) [Example 114]
- Day 1 content (%): 75.01%
- Day 3 content (%): 56.84%
- Day 7 content (%): 32.74%
- Initial content (%): 84.91%

Substance: Hyp-Gly-Gln-Asp-Gly-Leu-Ala ([Hyp]GQDGLA) [Example 12]
- Day 1 content (%): 89.90%
- Day 3 content (%): 79.04%
- Day 7 content (%): 58.75%
- Initial content (%): 95.31%

Substance: Hyp-Gly-Gln-Asp-Ala-Leu-Ala ([Hyp]GQDALA) [Example 39]
- Day 1 content (%): 91.76%
- Day 3 content (%): 88.16%
- Day 7 content (%): 85.50%
- Initial content (%): 93.03%

Substance: Hyp-Val-Gln-Asp-Gly ([Hyp]VQDG) [Example 74]
- Day 1 content (%): 92.95%
- Day 3 content (%): 85.57%
- Day 7 content (%): 79.66%
- Initial content (%): 98.01%

Substance: Hyp-Gly-Gln-Glu-Leu ([Hyp]GQEL) [Example 90]
- Day 1 content (%): 98.58%
- Day 3 content (%): 98.32%
- Day 7 content (%): 97.94%
- Initial content (%): 98.68%

Substance: Hyp-Gly-Gln-Asp (isopropyl ester)-Gly-Leu (isopropyl ester) [Example 112]
- Day 1 content (%): 92.78%
- Day 3 content (%): 86.07%
- Day 7 content (%): 80.91%
- Initial content (%): 95.34%

Substance: Pro-Gly-Gln-Asp-Gly (PGQDG) [Example 76]
- Day 1 content (%): 90.01%
- Day 3 content (%): 82.34%
- Day 7 content (%): 69.13%
- Initial content (%): 95.07%

Substance: Gln-Asu-Gly-Leu-Ala-Gly (Q[Asu′]GLAG) [Example 118]
- Day 1 content (%): 92.71%
- Day 3 content (%): 85.67%
- Day 7 content (%): 79.33%
- Initial content (%): 96.15%

Substance: Hyp-Gly-Gln-Asp-Leu-Leu-Ala ([Hyp]GQDLLA) [Example 38]
- Day 1 content (%): 92.19%
- Day 3 content (%): 88.19%
- Day 7 content (%): 85.93%
- Initial content (%): 97.06%

Substance: Hyp-Gly-Gln-Asp-Val-Leu [Example 34] ([Hyp]GQDVL)
- Day 1 content (%): 97.05%
- Day 3 content (%): 95.50%
- Day 7 content (%): 91.59%
- Initial content (%): 97.18%

Substance: Hyp-Gly-Gln-Asu-Gly (isopropyl ester) [Example 109]
- Day 1 content (%): 79.15%
- Day 3 content (%): 69.45%
- Day 7 content (%): 59.07%
- Initial content (%): 85.34%

Substance: Hyp-Gly-Gln-Asp-Aib ([Hyp]GQD[Aib]) [Example 85]
- Day 1 content (%): 92.08%
- Day 3 content (%): 88.07%
- Day 7 content (%): 75.04%
- Initial content (%): 92.62%

Substance: DGLAGP [Example 31]
- Day 1 content (%): 85.08%
- Day 3 content (%): 78.24%
- Day 7 content (%): 60.99%
- Initial content (%): 91.42%

Substance: [Hyp]G[dQ]DGL [Example 60]
- Day 1 content (%): 92.72%
- Day 3 content (%): 88.92%
- Day 7 content (%): 58.84%
- Initial content (%): 97.21%

Substance: trans-4NH2-Pro-Gly-Gln-Asp-Gly-Leu ([Pro(trans-4-NH2)]GQDGL) [Example 47]
- Day 1 content (%): 84.03%
- Day 3 content (%): 75.02%
- Day 7 content (%): 51.42%
- Initial content (%): 94.90%
